The target of data set [1] is PrfA^WT (Listeria monocytogenes virulence master regulator PrfA) (Listeria monocytogenes) (UniProt P22262). The data set is described as follows: ITC. (Isothermal titration calorimetry measures the heat released or taken up as one component is titrated into another.)
Data set [2] concerns the molecule itself. The data set can be described thus: crystal structure.

The Kd is the constant that tells how readily two partners part at equilibrium. On to tripeptide EVF, for which the Kd in data set [1] stood at 12 µM. This lies in the double-digit micromolar range.

B1: tetrapeptide STLL (peptide)
peptide: STLL
As to B1, in data set [1], the Kd stood at 32 µM.

B2: PrfA^WT (Listeria monocytogenes virulence master regulator PrfA) (natural protein)
chain: GAMNAQAEEFKKYLETNGIKPKQFHKKELIFNQWDPQEYCIFLYDGITKLTSISENGTIMNLQYYKGAFVIMSGFIDTETSVGYYNLEVISEQATAYVIKINELKELLSKNLTHFFYVFQTLQKQVSYSLAKFNDFSINGKLGSICGQLLILTYVYGKETPDGIKITLDNLTMQELGYSSGIAHSSAVSRIISKLKQEKVIVYKNSCFYVQNLDYLKRYAPKLDEWFYLACPATWGKLN
For the molecule B2, the binding result in data set [2] was “binds”.

B3: tetrapeptide RGLL (peptide)
peptide: RGLL
Turning to B3, in data set [1], the Kd stood at 145 µM.

B4: tetrapeptide EVFL (peptide)
peptide: EVFL
For the molecule B4, in data set [1], the Kd is 15 µM.
